The target in the test is Tyrosine-protein kinase transmembrane receptor ROR1 (human, UniProt Q01973 30-937). The test can be described thus: cell-based or functional assay.
Sequence of Tyrosine-protein kinase transmembrane receptor ROR1 (Q01973 30-937): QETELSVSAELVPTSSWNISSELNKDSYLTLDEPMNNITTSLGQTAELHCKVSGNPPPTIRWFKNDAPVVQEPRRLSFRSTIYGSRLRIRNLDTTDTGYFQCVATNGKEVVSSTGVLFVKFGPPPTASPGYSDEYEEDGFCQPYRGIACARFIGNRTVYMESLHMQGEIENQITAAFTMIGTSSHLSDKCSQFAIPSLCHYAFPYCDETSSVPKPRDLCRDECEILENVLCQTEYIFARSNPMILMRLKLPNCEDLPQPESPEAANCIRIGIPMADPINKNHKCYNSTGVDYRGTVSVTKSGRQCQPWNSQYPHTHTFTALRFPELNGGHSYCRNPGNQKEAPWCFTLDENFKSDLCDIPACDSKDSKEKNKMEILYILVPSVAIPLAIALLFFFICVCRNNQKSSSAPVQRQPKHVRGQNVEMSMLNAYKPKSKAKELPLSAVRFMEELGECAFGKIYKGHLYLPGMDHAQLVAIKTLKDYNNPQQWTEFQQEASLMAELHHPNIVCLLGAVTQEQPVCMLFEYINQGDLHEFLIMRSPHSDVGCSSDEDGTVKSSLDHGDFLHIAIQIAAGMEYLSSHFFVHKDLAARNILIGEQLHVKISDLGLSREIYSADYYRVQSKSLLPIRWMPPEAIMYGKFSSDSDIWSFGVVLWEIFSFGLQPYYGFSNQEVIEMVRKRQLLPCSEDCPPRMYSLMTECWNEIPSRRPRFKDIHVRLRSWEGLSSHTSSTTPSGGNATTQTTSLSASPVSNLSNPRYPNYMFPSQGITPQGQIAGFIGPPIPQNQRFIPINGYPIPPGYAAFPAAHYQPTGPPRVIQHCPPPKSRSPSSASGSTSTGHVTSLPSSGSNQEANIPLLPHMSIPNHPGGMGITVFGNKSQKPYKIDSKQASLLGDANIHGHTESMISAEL

B1: H10-v3 scCAR (other)
chain: EVKLVESGGGLVKPGGSLKLSCAASGFTFSSYAMSWVRQTPEKRLEWVASISTGASAYFPDSVKGRFTISRDNARNILYLQMSSLRSEDTAMYYCARITTSTWYFDVWGAGTTVTVSSGGGGSGGGGSGGGGSDIKMTQSPSSMYASLGERVTITCKASQDINSYLSWFQQKPGKSPKTLIYRANRLVDGVPSRFSGSGSGQDYSLTISSLEYEDMGIYYCLQYDEFPYTFGGGTKLEIKTTTPAPRPPTPAPTIASQPLSLRPEACRPAAGGAVHTRGLDFACDIYIWAPLAGTCGVLLLSLVITLYCKRGRKKLLYIFKQPFMRPVQTTQEEDGCSCRFPEEEEGGCELRVKFSRSADAPAYQQGQNQLYNELNLGRREEYDVLDKRRGRDPEMGGKPRRKNPQEGLYNELQKDKMAEAYSEIGMKGERRRGKGHDGLYQGLSTATKDTYDALHMQALPPR
As for B1, the “cytotoxic activity of scCAR-modified T cells, specific lysis of PC-3 cells” value (from here on “cytotoxic activity”) was over 20%; the “degranulation of scCAR-modified T cells (primary screening)” value (shortened to “degranulation … (primary screening)”) is at least 20%; the “degranulation of scCAR-modified T cells (secondary screening)” value (from here on “degranulation … (secondary screening)”) was at least 20%; the “production of IFNγ by scCAR-modified T cells” value (from here on “production of IFNγ”) is at least 1500 pg/mL.

B2: D10-v5 scCAR (other)
chain: QVQLKESGPGLVAPSQTLSITCTVSGFSLTSYGVHWVRQPPGKGLEWLGVIWAGGFTNYNSALKSRLSISKDNSKSQVLLKMTSLQTDDTAMYYCARRGSSYSMDYWGQGTSVTVSSGGGGSGGGGSGGGGSEIVLSQSPAITAASLGQKVTITCSASSNVSYIHWYQQRSGTSPRPWIYEISKLASGVPVRFSGSGSGTSYSLTISSMEAEDAAIYYCQQWNYPLITFGSGTKLEIQEPKSPDKTHTCPPCPAPPVAGPSVFLFPPKPKDTLMIARTPEVTCVVVDVSHEDPEVKFNWYVDGVEVHNAKTKPREEQYNSTYRVVSVLTVLHQDWLNGKEYKCKVSNKALPAPIEKTISKAKGQPREPQVYTLPPSRDELTKNQVSLTCLVKGFYPSDIAVEWESNGQPENNYKTTPPVLDSDGSFFLYSKLTVDKSRWQQGNVFSCSVMHEALHNHYTQKSLSLSPGKIYIWAPLAGTCGVLLLSLVITLYCKRGRKKLLYIFKQPFMRPVQTTQEEDGCSCRFPEEEEGGCELRVKFSRSADAPAYQQGQNQLYNELNLGRREEYDVLDKRRGRDPEMGGKPRRKNPQEGLYNELQKDKMAEAYSEIGMKGERRRGKGHDGLYQGLSTATKDTYDALHMQALPPR
As for B2, the “cytotoxic activity” value was over 20%; the “degranulation … (primary screening)” value is at least 20%; the “degranulation … (secondary screening)” value was at least 20%; the “production of IFNγ” value was at least 1500 pg/mL.

B3: H10-v5 scCAR (other)
chain: EVKLVESGGGLVKPGGSLKLSCAASGFTFSSYAMSWVRQTPEKRLEWVASISTGASAYFPDSVKGRFTISRDNARNILYLQMSSLRSEDTAMYYCARITTSTWYFDVWGAGTTVTVSSGGGGSGGGGSGGGGSDIKMTQSPSSMYASLGERVTITCKASQDINSYLSWFQQKPGKSPKTLIYRANRLVDGVPSRFSGSGSGQDYSLTISSLEYEDMGIYYCLQYDEFPYTFGGGTKLEIKEPKSPDKTHTCPPCPAPPVAGPSVFLFPPKPKDTLMIARTPEVTCVVVDVSHEDPEVKFNWYVDGVEVHNAKTKPREEQYNSTYRVVSVLTVLHQDWLNGKEYKCKVSNKALPAPIEKTISKAKGQPREPQVYTLPPSRDELTKNQVSLTCLVKGFYPSDIAVEWESNGQPENNYKTTPPVLDSDGSFFLYSKLTVDKSRWQQGNVFSCSVMHEALHNHYTQKSLSLSPGKIYIWAPLAGTCGVLLLSLVITLYCKRGRKKLLYIFKQPFMRPVQTTQEEDGCSCRFPEEEEGGCELRVKFSRSADAPAYQQGQNQLYNELNLGRREEYDVLDKRRGRDPEMGGKPRRKNPQEGLYNELQKDKMAEAYSEIGMKGERRRGKGHDGLYQGLSTATKDTYDALHMQALPPR
As for B3, the “degranulation … (primary screening)” value is at least 20%.

B4: D10-v1 scCAR (other)
chain: QVQLKESGPGLVAPSQTLSITCTVSGFSLTSYGVHWVRQPPGKGLEWLGVIWAGGFTNYNSALKSRLSISKDNSKSQVLLKMTSLQTDDTAMYYCARRGSSYSMDYWGQGTSVTVSSGGGGSGGGGSGGGGSEIVLSQSPAITAASLGQKVTITCSASSNVSYIHWYQQRSGTSPRPWIYEISKLASGVPVRFSGSGSGTSYSLTISSMEAEDAAIYYCQQWNYPLITFGSGTKLEIQGLAVSTISSFFPPGYQIYIWAPLAGTCGVLLLSLVITLYCKRGRKKLLYIFKQPFMRPVQTTQEEDGCSCRFPEEEEGGCELRVKFSRSADAPAYQQGQNQLYNELNLGRREEYDVLDKRRGRDPEMGGKPRRKNPQEGLYNELQKDKMAEAYSEIGMKGERRRGKGHDGLYQGLSTATKDTYDALHMQALPPR
As to B4, the “degranulation … (primary screening)” value was at least 20%.

B5: H10-v1 scCAR (other)
chain: EVKLVESGGGLVKPGGSLKLSCAASGFTFSSYAMSWVRQTPEKRLEWVASISTGASAYFPDSVKGRFTISRDNARNILYLQMSSLRSEDTAMYYCARITTSTWYFDVWGAGTTVTVSSGGGGSGGGGSGGGGSDIKMTQSPSSMYASLGERVTITCKASQDINSYLSWFQQKPGKSPKTLIYRANRLVDGVPSRFSGSGSGQDYSLTISSLEYEDMGIYYCLQYDEFPYTFGGGTKLEIKGLAVSTISSFFPPGYQIYIWAPLAGTCGVLLLSLVITLYCKRGRKKLLYIFKQPFMRPVQTTQEEDGCSCRFPEEEEGGCELRVKFSRSADAPAYQQGQNQLYNELNLGRREEYDVLDKRRGRDPEMGGKPRRKNPQEGLYNELQKDKMAEAYSEIGMKGERRRGKGHDGLYQGLSTATKDTYDALHMQALPPR
Turning to B5, the “degranulation … (primary screening)” value is at least 20%.

B6: D10-v3 scCAR (other)
chain: QVQLKESGPGLVAPSQTLSITCTVSGFSLTSYGVHWVRQPPGKGLEWLGVIWAGGFTNYNSALKSRLSISKDNSKSQVLLKMTSLQTDDTAMYYCARRGSSYSMDYWGQGTSVTVSSGGGGSGGGGSGGGGSEIVLSQSPAITAASLGQKVTITCSASSNVSYIHWYQQRSGTSPRPWIYEISKLASGVPVRFSGSGSGTSYSLTISSMEAEDAAIYYCQQWNYPLITFGSGTKLEIQTTTPAPRPPTPAPTIASQPLSLRPEACRPAAGGAVHTRGLDFACDIYIWAPLAGTCGVLLLSLVITLYCKRGRKKLLYIFKQPFMRPVQTTQEEDGCSCRFPEEEEGGCELRVKFSRSADAPAYQQGQNQLYNELNLGRREEYDVLDKRRGRDPEMGGKPRRKNPQEGLYNELQKDKMAEAYSEIGMKGERRRGKGHDGLYQGLSTATKDTYDALHMQALPPR
As to B6, the “cytotoxic activity” value is over 20%; the “degranulation … (primary screening)” value was at least 20%; the “degranulation … (secondary screening)” value was at least 20%; the “production of IFNγ” value is at least 1500 pg/mL.

Values taken from patent publication US20170283497A1 (CELLECTIS, published 2017).
